From paper PMC4041471, “Cas6 specificity and CRISPR RNA loading in a complex CRISPR-Cas system” (Nucleic Acids Research, 2014) come the findings set out here.

Series [1] has as its target Recombinant Cas6-1 (Sso1437) (S. solfataricus) (UniProt Q97Y96). As to the kind of experiment: SEC; recombinant Cas6-1 alone on Superdex 200 in GF buffer (20 mM sodium phosphate pH 7.5, 250 mM NaCl, 5 mM EDTA, 0.5 mM DTT).
Series [2] addresses T1, Cas6-1 (Saccharolobus/Sulfolobus solfataricus P2, UniProt Q97Y96 1-287).
T1 sequence: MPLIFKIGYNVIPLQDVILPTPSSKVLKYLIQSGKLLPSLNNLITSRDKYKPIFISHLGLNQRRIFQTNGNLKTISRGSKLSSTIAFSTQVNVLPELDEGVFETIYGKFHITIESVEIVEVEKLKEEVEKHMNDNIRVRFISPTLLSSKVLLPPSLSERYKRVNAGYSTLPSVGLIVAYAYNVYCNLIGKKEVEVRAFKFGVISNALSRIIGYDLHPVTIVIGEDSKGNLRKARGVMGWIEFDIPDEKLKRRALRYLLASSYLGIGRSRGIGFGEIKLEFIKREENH
As to the kind of experiment: fluorescence quenching; 25 C; apparent Kd, fit with variable Hill coefficient; partial cleavage not ruled out; EMSA: NR buffer (composition not in material) with 2 uM BSA, 0.5 nM RNA (legend: 1 nM), 15 min at 20 C, 6% native PAGE in 1x TBE; fluorescence quenching at 25 C, buffer not in material. Particulars: protein: recombinant; chain copies: 2; label: 5'-FAM. (A gel shift assay detects complexes by their altered migration in electrophoresis.)

The target in series [3] is T1, Cas6-1. The series is described as follows: EMSA; 20 C; apparent Kd, intermediate shifted species; EMSA: NR buffer (composition not in material) with 2 uM BSA, 0.5 nM RNA (legend: 1 nM), 15 min at 20 C, 6% native PAGE in 1x TBE; fluorescence quenching at 25 C, buffer not in material. Particulars: protein: recombinant; chain copies: 2; label: 5'-32P.
The target of series [4] is T1, Cas6-1. The series is described as follows: EMSA; 20 C; apparent Kd, no intermediate bands; EMSA: NR buffer (composition not in material) with 2 uM BSA, 0.5 nM RNA (legend: 1 nM), 15 min at 20 C, 6% native PAGE in 1x TBE; fluorescence quenching at 25 C, buffer not in material. The note with it: protein: recombinant; chain copies: 2; label: 5'-32P.
Series [5] deals with the molecule itself. The series is described as follows: SEC; S. solfataricus cell lysate on Superdex 200 in GF buffer (20 mM sodium phosphate pH 7.5, 250 mM NaCl, 5 mM EDTA, 0.5 mM DTT); 2 ml fractions analysed by western blotting.
Series [6] concerns the target T1, Cas6-1. The series is described as follows: fluorescence quenching; 25 C; apparent Kd, fit with variable Hill coefficient; EMSA: NR buffer (composition not in material) with 2 uM BSA, 0.5 nM RNA (legend: 1 nM), 15 min at 20 C, 6% native PAGE in 1x TBE; fluorescence quenching at 25 C, buffer not in material. The note with it: protein: recombinant; chain copies: 2; label: 5'-FAM.

The stoichiometry N is the number of molecules, sites or subunits per partner or assembly. For the molecule “Recombinant Cas6-1 (Sso1437) (from UniProt Q97Y96 1-287) (enzyme)”, in series [1], the stoichiometry N came out at 2. Regarding UGAUAAUCUCUUAUAGAAUUGAAAG (ssRNA) [FAM-CD repeat RNA], the Kd with Cas6-1 [2] is about 14 nM.

In the case of GAUAAUCUCUUAUAGAAUUGAAAG (ssRNA) [CD-repeat RNA (32P)], the Kd in the series with Cas6-1 [3] was about 16 nM. In the case of GAUUAAUCCCAAAAGGAAUUGAAAG (ssRNA) [AB-repeat RNA (32P)], the Kd in the series with Cas6-1 [4] was found to be 350 nM.

B1: Cmr7 (Sso1986) subunit of CMR, free protein in the lysate (natural protein, UniProt Q97WX5 1-197, looked up)
chain: MTSGAGWEEQVFLPITNSISSEDNNQIKIGSSVSIEYNQNGQHVSQIDDKGLHNILVLTGYAIDESTGELVPTFDPCDYVKGILISGKILKGNHFKIIGIPSNKLYIIRKKDVHGNITFSLPIKNFNTGTYQVDLRDKVTSFVSLDRDVAKTIVDNVLAKIYAKIYNSLNKEQKDKLYRDVEEIFNYYSIKSLKSNP
notes: Cmr7 (Sso1986), subunit of the CMR complex of Sulfolobus solfataricus; also called dimeric Cmr7 protein; source: endogenous, S. solfataricus lysate
With B1, the “stoichiometry N” value in series [5] was found to be 2. In the case of UGAUAAUCUCUUAUAGA (ssRNA, 3'-phosphate) [FAM-CDproduct RNA], in the series with Cas6-1 [6], the Kd is about 14 nM.
